# B1: GpH7-A5/GpH7-B3 variant A330_11K/GpL16-k0 (antibody, human IgG1, kappa)
# heavy 1: not shown
# heavy 2: not shown
# light: DIVMTQSPLSLPVTPGEPASISCQASESLVHSNRNTYLHWYLQKPGQSPQLLIYKVSNRFSGVPDRFSGSGSGTDFTLKISRVEAEDVGVYYCSQNTHVPPTFGQGTKVEIERTVAAPSVFIFPPSDEQLKSGTASVVCLLNNFYPREAKVQWKVDNALQSGNSQESVTEQDSKDSTYSLSSTLTLSKADYEKHKVYACEVTHQGLSSPVTKSFNRGEC
# notes: heterodimerized IgG1, mutation in one H chain only; also called He Ab
# B2: GpH7-A5/GpH7-B3 variant A330_12R/GpL16-k0 (antibody, human IgG1, kappa)
# heavy 1: not shown
# heavy 2: not shown
# light: B1 light
# notes: as for B1
# B3: GpH7-A5/GpH7-B3 variant A330_15Y/GpL16-k0 (antibody, human IgG1, kappa)
# heavy 1: not shown
# heavy 2: not shown
# light: B1 light
# notes: as for B1
# B4: GpH7-A5/GpH7-B3 variant A330_19Q/GpL16-k0 (antibody, human IgG1, kappa)
# heavy 1: not shown
# heavy 2: not shown
# light: B1 light
# notes: as for B1
# B5: GpH7-A5/GpH7-B3 variant E333_04F/GpL16-k0 (antibody, human IgG1, kappa)
# heavy 1: not shown
# heavy 2: not shown
# light: B1 light
# notes: as for B1
# B6: GpH7-A5/GpH7-B3 variant E333_05P/GpL16-k0 (antibody, human IgG1, kappa)
# heavy 1: not shown
# heavy 2: not shown
# light: B1 light
# notes: as for B1
# B7: GpH7-A5/GpH7-B3 variant E333_07I/GpL16-k0 (antibody, human IgG1, kappa)
# heavy 1: not shown
# heavy 2: not shown
# light: B1 light
# notes: as for B1
# B8: GpH7-A5/GpH7-B3 variant E333_08L/GpL16-k0 (antibody, human IgG1, kappa)
# heavy 1: not shown
# heavy 2: not shown
# light: B1 light
# notes: as for B1
# B9: GpH7-A5/GpH7-B3 variant E333_09D/GpL16-k0 (antibody, human IgG1, kappa)
# heavy 1: not shown
# heavy 2: not shown
# light: B1 light
# notes: as for B1
# B10: GpH7-A5/GpH7-B3 variant E333_15Y/GpL16-k0 (antibody, human IgG1, kappa)
# heavy 1: not shown
# heavy 2: not shown
# light: B1 light
# notes: as for B1
# B11: GpH7-A5/GpH7-B3 variant H268_08L/GpL16-k0 (He Ab) (antibody, human IgG1, kappa)
# heavy 1: not shown
# heavy 2: not shown
# light: B1 light
# notes: He Ab: mutation in one H chain only
# B12: GpH7-A5/GpH7-B3 variant H268_11K/GpL16-k0 (He Ab) (antibody, human IgG1, kappa)
# heavy 1: not shown
# heavy 2: not shown
# light: B1 light
# notes: as for B11
# B13: GpH7-A5/GpH7-B3 variant H268_12R/GpL16-k0 (He Ab) (antibody, human IgG1, kappa)
# heavy 1: not shown
# heavy 2: not shown
# light: B1 light
# notes: as for B11
# B14: GpH7-A5/GpH7-B3 variant H268_14T/GpL16-k0 (He Ab) (antibody, human IgG1, kappa)
# heavy 1: not shown
# heavy 2: not shown
# light: B1 light
# notes: as for B11
# B15: GpH7-A5/GpH7-B3 variant L234_04F/GpL16-k0 (He Ab) (antibody, human IgG1, kappa)
# heavy 1: not shown
# heavy 2: not shown
# light: B1 light
# notes: as for B11
# B16: GpH7-A5/GpH7-B3 variant L234_15Y/GpL16-k0 (He Ab) (antibody, human IgG1, kappa)
# heavy 1: not shown
# heavy 2: not shown
# light: B1 light
# notes: as for B11
# B17: GpH7-A5/GpH7-B3 variant P271_02A/GpL16-k0 (He Ab) (antibody, human IgG1, kappa)
# heavy 1: not shown
# heavy 2: not shown
# light: B1 light
# notes: as for B11
# B18: GpH7-A5/GpH7-B3 variant P271_03V/GpL16-k0 (He Ab) (antibody, human IgG1, kappa)
# heavy 1: not shown
# heavy 2: not shown
# light: B1 light
# notes: as for B11
# B19: GpH7-A5/GpH7-B3 variant P271_04F/GpL16-k0 (He Ab) (antibody, human IgG1, kappa)
# heavy 1: not shown
# heavy 2: not shown
# light: B1 light
# notes: as for B11
# B20: GpH7-A5/GpH7-B3 variant P271_06M/GpL16-k0 (He Ab) (antibody, human IgG1, kappa)
# heavy 1: not shown
# heavy 2: not shown
# light: B1 light
# notes: as for B11
# Molecular target: T1, FcγRIIb, extracellular domain with C-terminal His tag (human, UniProt P31994 43-217)
# T1 construct: extracellular domain; made in FreeStyle293 cells; analyte in the Biacore assay; also called 2b; FcgRIIb
# T1 sequence (looked up): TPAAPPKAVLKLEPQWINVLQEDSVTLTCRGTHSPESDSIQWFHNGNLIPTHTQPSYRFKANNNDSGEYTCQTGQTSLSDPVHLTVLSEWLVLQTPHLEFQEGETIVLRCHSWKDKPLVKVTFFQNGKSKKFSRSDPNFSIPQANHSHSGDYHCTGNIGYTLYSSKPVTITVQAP
# Assay: SPR (Biacore), antibody captured, FcγR analyte; vs GpH7-A5/GpH7-B3/GpL16-k0 = 100
# Method: (§1) The heterodimerized antibodies He Abs in which one of the H chains was introduced with an alteration were assayed for their binding activities to each activating FcγR and inhibitory FcγR according to the method described in Example 4. […] The activating FcγRs in FIGS. 26, 27, 28, and 29 are FcγRIa, FcγRIIa (R), FcγRIIa (H), and FcγRIIIa, respectively.
# (§2) Analysis of interaction between objective antibody and the FcγR was carried out using Biacore T100 (GE Healthcare). HBS-EP+ (GE Healthcare) was used as the running buffer, and the measurement temperature was set to 25° C. Chips produced by immobilizing the antigen peptide by the amine coupling method to a Series S Sencor Chip CM5 (GE Healthcare), or alternatively, chips produced by allowing preliminarily biotinylated antigen peptides to interact with and immobilize onto a Series S Sensor Chip SA (certified) (GE Healthcare) were used. Antibodies of interest were captured onto an antigen peptide-immobilized chip, and allowed to interact to each FcγR diluted with running buffer. To regenerate and repeatedly use the chip, the antibodies captured on the chip were washed off by reacting 10 mM glycine-HCl, pH 1.5.
row,Binder,He/Con_2b
1,B1,95 relative (HeCon Ab = 100)
2,B2,84.8 relative (HeCon Ab = 100)
3,B3,95 relative (HeCon Ab = 100)
4,B4,90.8 relative (HeCon Ab = 100)
5,B5,94.6 relative (HeCon Ab = 100)
6,B6,97.7 relative (HeCon Ab = 100)
7,B7,96.2 relative (HeCon Ab = 100)
8,B8,95 relative (HeCon Ab = 100)
9,B9,94.3 relative (HeCon Ab = 100)
10,B10,94.4 relative (HeCon Ab = 100)

# Molecular target: T2, FcγRIIa R (FcγRIIa allotype with Arg at position 131), extracellular domain with C-terminal His tag (human, UniProt P12318 34-217)
# T2 construct: extracellular domain; made in FreeStyle293 cells; analyte in the Biacore assay; also called FcγRIIa type R; 2aR
# T2 sequence (looked up): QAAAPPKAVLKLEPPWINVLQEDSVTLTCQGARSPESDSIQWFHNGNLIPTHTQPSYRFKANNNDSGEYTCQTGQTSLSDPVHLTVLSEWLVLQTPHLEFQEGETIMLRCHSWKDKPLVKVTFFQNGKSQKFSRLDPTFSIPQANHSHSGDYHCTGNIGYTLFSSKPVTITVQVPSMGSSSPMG
# Assay: as above
# Method: as §1, §2
row,Binder,He/Con_2aR
1,B1,110 relative (HeCon Ab = 100)
2,B2,104 relative (HeCon Ab = 100)
3,B3,102 relative (HeCon Ab = 100)
4,B4,104 relative (HeCon Ab = 100)
5,B5,102 relative (HeCon Ab = 100)
6,B6,105 relative (HeCon Ab = 100)
7,B7,104 relative (HeCon Ab = 100)
8,B8,103 relative (HeCon Ab = 100)
9,B9,103 relative (HeCon Ab = 100)
10,B10,101 relative (HeCon Ab = 100)

# Molecular target: T3, FcγRIa extracellular domain with C-terminal His tag (human, UniProt P12314 16-292)
# T3 construct: extracellular domain; Expressed in FreeStyle293 cells; analyte in the SPR assay; also called FcgRI; 1a
# Assay: SPR (Biacore), relative binding, HeCon Ab = 100
# T3 sequence (P12314 16-292): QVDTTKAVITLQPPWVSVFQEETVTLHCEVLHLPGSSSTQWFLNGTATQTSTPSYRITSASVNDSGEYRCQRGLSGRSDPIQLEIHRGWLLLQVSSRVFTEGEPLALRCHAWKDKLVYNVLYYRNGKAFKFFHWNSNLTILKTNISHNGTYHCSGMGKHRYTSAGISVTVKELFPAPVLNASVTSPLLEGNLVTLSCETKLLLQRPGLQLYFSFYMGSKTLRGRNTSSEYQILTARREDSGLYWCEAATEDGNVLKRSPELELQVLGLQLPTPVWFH
row,Binder,He/Con_1a
1,B11,107 % of HeCon Ab (=100)
2,B12,106 % of HeCon Ab (=100)
3,B13,106 % of HeCon Ab (=100)
4,B14,112 % of HeCon Ab (=100)
5,B15,101 % of HeCon Ab (=100)
6,B16,100 % of HeCon Ab (=100)
7,B17,104 % of HeCon Ab (=100)
8,B18,102 % of HeCon Ab (=100)
9,B19,102 % of HeCon Ab (=100)
10,B20,102 % of HeCon Ab (=100)

# Molecular target: T4, FcγRIIb extracellular domain with C-terminal His tag (human, UniProt P31994 43-217)
# T4 construct: extracellular domain; Expressed in FreeStyle293 cells; analyte in the SPR assay; also called FcgRIIb; 2b
# T4 sequence (looked up): T1 sequence (looked up)
# Assay: SPR (Biacore), relative binding, HeCon Ab = 100
row,Binder,He/Con_2b
1,B11,67.8 % of HeCon Ab (=100)
2,B12,83 % of HeCon Ab (=100)
3,B13,89.8 % of HeCon Ab (=100)
4,B14,86 % of HeCon Ab (=100)
5,B15,99.8 % of HeCon Ab (=100)
6,B16,96.3 % of HeCon Ab (=100)
7,B17,88 % of HeCon Ab (=100)
8,B18,74.8 % of HeCon Ab (=100)
9,B19,59.5 % of HeCon Ab (=100)
10,B20,77.5 % of HeCon Ab (=100)
